Test results published in PMC2171422 (The Journal of Cell Biology, 2005).

Biological target: T1, protein A–Sro7p (yeast (budding yeast), UniProt Q12038 1-1033)
T1 sequence: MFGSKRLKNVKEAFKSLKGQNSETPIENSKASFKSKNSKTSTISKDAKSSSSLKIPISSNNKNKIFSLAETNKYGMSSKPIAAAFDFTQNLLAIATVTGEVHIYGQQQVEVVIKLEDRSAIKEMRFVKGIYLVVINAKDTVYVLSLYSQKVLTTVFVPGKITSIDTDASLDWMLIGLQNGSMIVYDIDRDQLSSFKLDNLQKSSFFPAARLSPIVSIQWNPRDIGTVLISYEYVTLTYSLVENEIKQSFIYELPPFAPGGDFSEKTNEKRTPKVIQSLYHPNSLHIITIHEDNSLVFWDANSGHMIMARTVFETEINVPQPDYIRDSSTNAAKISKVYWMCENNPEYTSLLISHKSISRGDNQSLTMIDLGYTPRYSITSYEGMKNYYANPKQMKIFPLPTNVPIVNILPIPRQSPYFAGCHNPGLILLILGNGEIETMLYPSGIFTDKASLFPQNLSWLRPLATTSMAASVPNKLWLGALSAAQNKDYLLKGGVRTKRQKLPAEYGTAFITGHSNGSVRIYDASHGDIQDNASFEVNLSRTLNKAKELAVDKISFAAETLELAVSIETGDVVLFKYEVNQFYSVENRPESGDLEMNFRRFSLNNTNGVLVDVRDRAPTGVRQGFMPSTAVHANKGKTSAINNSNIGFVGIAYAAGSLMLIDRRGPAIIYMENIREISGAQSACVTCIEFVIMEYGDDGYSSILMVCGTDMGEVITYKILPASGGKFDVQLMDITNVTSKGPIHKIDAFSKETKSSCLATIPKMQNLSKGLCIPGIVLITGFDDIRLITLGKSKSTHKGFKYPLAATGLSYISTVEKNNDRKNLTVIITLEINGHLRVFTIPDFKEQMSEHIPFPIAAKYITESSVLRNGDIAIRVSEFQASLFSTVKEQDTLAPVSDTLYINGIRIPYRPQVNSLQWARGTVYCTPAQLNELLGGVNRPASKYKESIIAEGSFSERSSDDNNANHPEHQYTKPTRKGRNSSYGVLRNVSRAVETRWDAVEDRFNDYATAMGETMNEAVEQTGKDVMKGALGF
Assay: pull-down

- Kd: 46 ± 6 nM
B1: Exo84p NH2-terminal domain (aa 1–320) GST fusion protein (domain or fragment)
chain: MVEFSLKKARNNWKHVKKSASSPAKQKTPPSPAKPKQKTKKNPYSDLKDPATSYTLPTINARERSRVATSMQRRLSIHNTNYAPPTLDYSMPLPDMPNMIVPNDNVDSSHNNSSFTTENESVSSKGPSNSLNLSTADLSLNDSSYNKVPARSAMRNTVNPSGSNDPFNNSTSLRKMLANPHFNAKDFVHDKLGNASAITIDKFTSNLTDLSIQVQEEVKLNINKSYNEIMTVNNDLNVAMLELKRVRANINDLNEVLDQCTKIAEKRLQLQDQIDQERQGNFNNVESHSNSPALLPPLKAGQNGNLMRRDRSSVLILEKF
